We go through 13 sequences from the supplement of paper PMC9170038.

The series has as its system MS2 coat protein. Kind of series: apparent KD of MS2 coat protein; higher = weaker reporter binding. The note with it: Eterna round: R107. An outline of the steps: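 On-chip transcription from Illumina sequencing clusters produced the designed RNA switches. These were titrated with SNAP-549-labelled MS2 coat protein (twofold steps, 0.7 or 1.5 nM to 3 µM) in 100 mM Tris-HCl pH 7.5, 80 mM KCl, 4 mM MgCl2, with or without constant ligand. The apparent KD given is the per-design median of normalised cluster binding-curve fits.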

Where [1] appears, read: input ligand: theophylline 20 uM.
The mark [2] stands for this setting: input ligand: theophylline 2 mM.
The mark [3] stands for this setting: input ligand: tryptophan 2.4 mM.

Consider “UGACAUUGCUCAGAUACCAGACAUGAGCAUCAGCCAUGUACCAAGAGUACAUGUUAAAAUGUCCCUUGGCAGCUGAGCAAUGUCU [Mod of Eli's TheoBX5 #AlternateMS2 v2]”, for which the “apparent KD of MS2 coat protein” value reads like this: (input ligand: arginine 13.2 mM) 73.6 nM; (input ligand: none) 67.6 nM; under setting [1], 203 nM; under setting [2], 452 nM; under setting [3], 60.1 nM.
For “UGAUACCAGUCGGCCGCCACUAUGCUAGAUACUAGCAAUAAAUGGGAACAUGAGGAUCACCCAUGUAGGACCGGGACUGGUAUCU”, in that order: 32.1 nM, 33.6 nM, 42.9 nM, 42.7 nM and 64 nM.
For “UGAUAUGUGGGAAGGAGCGCAUACUUCACAUGAGGAUCACCCAUGUCAAGACGUGAGUCAGUGCAGGUAGGUCGCCUAGUUAUGA [Same State - Arginine B (Freestyle 19)]”, in that order: 36.8 nM, 124 nM, 101 nM, 147 nM and 85.3 nM.
As to “UGAUGGUGCGGAAGGAGCGUGUAAGAACAAGAACAUGAGGAUCACCCAUGUAUUAAUUUAACACAGGUAGGUCGCCGUGUUAUUG [11.K]”, the “apparent KD of MS2 coat protein” value (input ligand: arginine 13.2 mM) worked out at 29.6 nM; the “apparent KD of MS2 coat protein” value (input ligand: none) is 35.5 nM; the “apparent KD of MS2 coat protein” value under setting [1] amounted to 39.3 nM; the “apparent KD of MS2 coat protein” value under setting [2] amounted to 29.6 nM; the “apparent KD of MS2 coat protein” value under setting [3] was found to be 20.2 nM.
For the sequence “UGAUGGUUCGGAAGGAGCGUGUAAGAACAAGAACAUGAGGAUCACCCAUGUAUUAAUUUAACACAGGUAGGUCGCCGGGUUAUUG [11.J]”, the “apparent KD of MS2 coat protein” value (input ligand: arginine 13.2 mM) is 20.9 nM; the “apparent KD of MS2 coat protein” value (input ligand: none) stood at 16.3 nM; the “apparent KD of MS2 coat protein” value under setting [1] was 23.1 nM; the “apparent KD of MS2 coat protein” value under setting [2] was 22.2 nM; the “apparent KD of MS2 coat protein” value under setting [3] was determined as 14.4 nM.
On the same counts, the results for “UGCACUCAUGCGGCCGCCACUGUCGGCCGCCACUAAACAUGAGGAUCACCCAUGUAGGACCGGGACAGGACCGGGCAUGGGUGCU [TryBS - #DoubleAptamer 2]” are 12.9 nM, 15.7 nM, 20.7 nM, 13.8 nM and 9.97 nM.
“UGGAGAUAGACGGCCGCCACUAACAUGAGGAUCACCCAUGUCGUCACGAAUGGAUGGCCCUAGAAUAGGACCGGGUCCGGAUUCA [theeternabot_exclusion_MS2_Trp_B_48]”: the “apparent KD of MS2 coat protein” value is, setting by setting: (input ligand: arginine 13.2 mM) 23.7 nM; under setting [1], 42.5 nM; under setting [2], 50.6 nM.
Regarding “UGGCAAGAGGGAAGGAGCGUCAGCAGAGUAACAUGAGGAUCACCCAUGUAGCACGUGGUGUGACAGGUAGGUCGCCCUCUGCCGU [SS-ArgB13]”, the “apparent KD of MS2 coat protein” value (input ligand: arginine 13.2 mM) worked out at 28.5 nM; the “apparent KD of MS2 coat protein” value (input ligand: none) turned out to be 32.4 nM; the “apparent KD of MS2 coat protein” value under setting [1] stood at 77.1 nM; the “apparent KD of MS2 coat protein” value under setting [2] amounted to 46 nM; the “apparent KD of MS2 coat protein” value under setting [3] is 28.3 nM.
In the case of “UGGCAGUACAUGGGUUACUGCCAAGGUGAUACCAGCAUCGAAAGAUGCCCUUGGCAGCACCAACAUGAGGAUCACCCAUGUAAUA [(MT)''-(M)'-(T')-(Theo)-(Ms2)_Design1/22_8]”, the “apparent KD of MS2 coat protein” value runs as follows: (input ligand: arginine 13.2 mM) 68.5 nM; (input ligand: none) 234 nM; under setting [1], 210 nM; under setting [2], 53.9 nM; under setting [3], 247 nM.
On the same counts, the results for “UGGGUACAUGAGGAUCACCCAUGUACUGAAGGAGCGAGAAAUAUCUCAGGUAGGUCGCAGACAUGAGGAUCACCCAUGUAGUAGG [Exclusion Arginine A GF 11]” are 29.5 nM, 28.1 nM, 31.8 nM, 33.1 nM and 26.7 nM.
For “UGGGUACAUGAGGAUCACCCAUGUACUGAAGGAGCGAGAAUUAUCUCAGGUAGGUCGCAGACAUGAGGAUCACCCAUGUAGUGGG [Exclusion Arginine A GF 13]”, in that order: 15 nM, 18 nM, 22.7 nM, 20 nM and 17.7 nM.
For the sequence “UGGGUAGAAUAGAUAGAUAGAUAAACUGAAGGAGCGAGAAUAAACUCAGGUAGGUCGCAGACAUGAGGAUCACCCAUGUAGAUGG [Same State Arginine A GF15]”, the “apparent KD of MS2 coat protein” value by setting is: (input ligand: arginine 13.2 mM) 91.1 nM; (input ligand: none) 98.8 nM; under setting [1], 87.2 nM; under setting [2], 163 nM; under setting [3], 88.9 nM.
On to “UGGUAGCCACACUUCAAACAUCGACAAGAUACCAGUUAAUCAACGAACCCUUGGCAGCUUCGUACAUGAGGAUCACCCAUGUGGA [theeternabot_exclusion_MS2_Theo_A_6]”, for which the “apparent KD of MS2 coat protein” value reads like this: (input ligand: arginine 13.2 mM) 18.2 nM; under setting [1], 24.2 nM; under setting [3], 19.5 nM.
